The labels stand for the following.
B1: Azoarcus group I ribozyme (parent)
chain: GUGCCUUGCGCCGGGAAACCACGCAAGGGAUGGUGUCAAAUUCGGCGAAACCUAAGCGCCCGCCCGGGCGUAUGGCAACGCCGAGCCAAGCUUCGGCGCCUGCGCCGAUGAAGGUGUAGAGACUAGACGGCACCCACCUAAGGCAAACGCUAUGGUGAAGGCAUAGUCCAGGGAGUGGCGAAAGUCACACAAACCGG

Data on 83 variants can be found in the RNAGym collection of RNA variant scans (doi:10.1093/molbev/msab373).

In the data set the parent is B1. Briefly: reverse-splicing fitness (ratio to wild type); higher = more active; in vitro selection; Mg2+ level not given. The method in brief:
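An in vitro group I ribozyme library with randomized positions was T7-transcribed and gel-purified. In triplicate, 10 pmol RNA in EPPS pH 7.5 was reacted with 50 pmoles of a 30-nt RNA substrate for 1 h at 37 °C across several added MgCl2 levels (1–48 mM), then stopped with EDTA. Products were reverse transcribed from a substrate-complementary primer, PCR-amplified and sequenced (HiSeq 4000). Fitness is a variant's read proportion after selection over that before, normalised to wild type.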
In the case of C82G A120U A145G C150G C169U, the reverse-splicing fitness was found to be 0.00739. Regarding C82G A120U A145G C150G C169A, the reverse-splicing fitness was 0.00872.

On to C82G A120U A145G C150G C169G, for which the reverse-splicing fitness is 0.0074. For the variant C82G A120U C150A C169G U176G, the reverse-splicing fitness came to 0.00199. Turning to C82G A120U C150A C169G U176A, the reverse-splicing fitness was found to be 0.00631. For C82G A120U C150A C169G U176C, the reverse-splicing fitness was found to be 0.00368. As for C82G A120G A145U C150G C169A U176C, the reverse-splicing fitness worked out at 0.0121. As to C82G A120G A145U C150G C169A U176A, the reverse-splicing fitness is 0.0112. To C82G A120G A145U C150G C169A U176G belongs 0.00431; to C82G A120U A145G, 0.229; to C82G A120U A145C, 0.204. With C82G A120U A145U, the reverse-splicing fitness came to 0.23. Take C82G A120G C150U C169A U176C: the reverse-splicing fitness is 0.0189.

Take C82G A120G C150U C169A U176G: the reverse-splicing fitness came to 0.00527. With C82G A120G C150U C169A U176A, the reverse-splicing fitness came out at 0.0184. C82G A120G A145U U176A: the reverse-splicing fitness is 0.0157. To C82G A120G A145U U176G belongs 0.0047; to C82G A120G A145U U176C, 0.0191; to C82G A120U A145U C169A, 0.00221. On to C82G A120U A145U C169G, for which the reverse-splicing fitness is 0.00637. Consider C82G A120U A145U C169U, for which the reverse-splicing fitness worked out at 0.00672. C82G A120U A145G C150U C169U U176G: the reverse-splicing fitness was determined as 0.00216. Consider C82G A120U A145G C150U C169U U176A, for which the reverse-splicing fitness worked out at 0.00444. For C82G A120U A145G C150U C169U U176C, the reverse-splicing fitness came out at 0.00469.

In the case of C82G A120G A145U C150G C169A, the reverse-splicing fitness is 0.0112. Take C82G A120G A145U C150G C169G: the reverse-splicing fitness amounted to 0.0107. In the case of C82G A120G A145U C150G C169U, the reverse-splicing fitness is 0.01.

As to C82G A120G U176A, the reverse-splicing fitness came to 0.0149.

For the variant C82G A120G U176C, the reverse-splicing fitness came to 0.0208. For the variant C82G A120G U176G, the reverse-splicing fitness came to 0.00803. To C82G A120G C169A U176A belongs 0.0209; to C82G A120G C169A U176G, 0.00403; to C82G A120G C169A U176C, 0.0252. With C82G A120U A145G C150G U176C, the reverse-splicing fitness turned out to be 0.0152. For C82G A120U A145G C150G U176A, the reverse-splicing fitness was 0.00899. For the variant C82G A120U A145G C150G U176G, the reverse-splicing fitness amounted to 0.0041. Consider C82G A120G A145G C169U U176G, for which the reverse-splicing fitness came out at 0.00391.

With C82G A120U A145U C150U, the reverse-splicing fitness came out at 0.131.

On to C82G A120U A145U C150A, for which the reverse-splicing fitness was found to be 0.0151. On to C82G A120U A145U C150G, for which the reverse-splicing fitness is 0.0173.

As to C82G A120U A145C C150G C169G U176C, the reverse-splicing fitness is 0.00209. For C82G A120U A145C C150G C169G U176G, the reverse-splicing fitness is 0.00178.

For the variant C82G A120U A145C C150G C169G U176A, the reverse-splicing fitness came to 0.00247.

In the case of C82G A120U A145G C150U C169U, the reverse-splicing fitness was 0.00803. On to C82G A120U A145G C150U C169A, for which the reverse-splicing fitness is 0.00606. Consider C82G A120U A145G C150U C169G, for which the reverse-splicing fitness is 0.00765. With C82G A120U A145C C150U C169A U176C the figure was 0.00192. Regarding C82G A120U A145C C150U C169A U176G, the reverse-splicing fitness was 0.00172.

As for C82G A120U A145C C150U C169A U176A, the reverse-splicing fitness is 0.00222. On to C82G A120U A145C C150G C169U U176G, for which the reverse-splicing fitness turned out to be 0.00182.

Turning to C82G A120U A145C C150G C169U U176C, the reverse-splicing fitness amounted to 0.00176. As for C82G A120U A145C C150G C169U U176A, the reverse-splicing fitness was found to be 0.00213. As to C82G A120U A145U C150G C169A, the reverse-splicing fitness is 0.00271. To C82G A120U A145U C150G C169U belongs 0.00283. Regarding C82G A120U A145U C150G C169G, the reverse-splicing fitness was found to be 0.00287. On to C82G A120U A145G C150A C169U U176G, for which the reverse-splicing fitness came to 0.00206.

Regarding C82G A120U A145G C150A C169U U176A, the reverse-splicing fitness worked out at 0.00465. On to C82G A120U A145G C150A C169U U176C, for which the reverse-splicing fitness came to 0.00375.

On to C82G A120U A145C C150A U176G, for which the reverse-splicing fitness stood at 0.00299. With C82G A120U A145C C150A U176C, the reverse-splicing fitness was 0.00532. With C82G A120U A145C C150A U176A the figure was 0.00467; with C82G A120U A145U C150A C169G U176A, 0.00221; with C82G A120U A145U C150A C169G U176G, 0.00134.

As for C82G A120U A145U C150A C169G U176C, the reverse-splicing fitness was 0.00192.

C82G A120G C169U U176C: the reverse-splicing fitness worked out at 0.024.

For the variant C82G A120G C169U U176A, the reverse-splicing fitness came out at 0.0236. With C82G A120G C169U U176G the figure was 0.00492; with C82G A120G A145U C169U U176A, 0.0203; with C82G A120G A145U C169U U176C, 0.0176. For C82G A120G A145U C169U U176G, the reverse-splicing fitness was determined as 0.00349. C82G A120U A145U C150U C169G U176C: the reverse-splicing fitness is 0.00331. Turning to C82G A120U A145U C150U C169G U176A, the reverse-splicing fitness came to 0.00248. Consider C82G A120U A145U C150U C169G U176G, for which the reverse-splicing fitness stood at 0.00167.

Turning to C82G A120U A145G C150A, the reverse-splicing fitness was determined as 0.0245. With C82G A120U A145G C150U the figure was 0.168; with C82G A120U A145G C150G, 0.022. Consider C82G A120G A145U C150U, for which the reverse-splicing fitness came out at 0.0229. On to C82G A120G A145U C150A, for which the reverse-splicing fitness turned out to be 0.00866. To C82G A120G A145U C150G belongs 0.00803; to C82G A120U A145C C150G, 0.0203. Consider C82G A120U A145C C150U, for which the reverse-splicing fitness is 0.0385. For the variant C82G A120U A145C C150A, the reverse-splicing fitness amounted to 0.00856. To C82G A120G C150U C169G U176C belongs 0.0246.
